# Numbered stars: 1 amine (or outer) side, 2 acyl side, 3 side chain; on linkers, the order of the positions; unused ones are H or OH. Bridge positions count the residues as written; N and C are the ends. Square brackets hold non-standard residues; d marks the D form. Ends that are not written are not given here. * marks the point of attachment. (N-Benzyl)D = (2S)-2-Amino-4-(benzylamino)-4-oxobutanecarboxylic acid, O=C(C[C@H](N[*:1])C(=O)[*:2])NCc1ccccc1; X10 = (2R)‑2‑amino‑3‑(trifluoromethylsulfanyl)propanoic acid, O=C([C@H](CSC(F)(F)F)N[*:1])[*:2]; (3-Chloro-Ph)G = 3-chlorophenylglycine, O=C([C@@H](N[*:1])c1cccc(Cl)c1)[*:2]; Phe(2,5-diF) = O=C([C@H](Cc1cc(F)ccc1F)N[*:1])[*:2]; NH(CH2CH2O)4CH2CO = O=C(COCCOCCOCCOCCN[*:1])[*:2]; Pro(cis-4-CF3) = O=C(O)[C@@H]1C[C@H](C(F)(F)F)CN1; C18 diacid = O=C(O)CCCCCCCCCCCCCCCCC(=O)*; Oic = O=C(O)[C@@H]1C[C@@H]2CCCC[C@@H]2N1; tBuAla = CC(C)(C)C[C@H](N)C(=O)O; Aad = N[C@@H](CCCC(=O)O)C(=O)O; Pen = CC(C)(S)[C@H](N)C(=O)O; PEG3 = NCCOCCOCCOCCC(=O)O; NMeA = CN[C@@H](C)C(=O)O; Orn = NCCC[C@H](N)C(=O)O; dβPro = D-beta-Proline; Sar = CNCC(=O)O
# T1: Recombinant human MASP1 enzyme (fragment corresponding to amino acids 297-699, C-terminal His Tag) (human, UniProt P48740 297-699)
# T1 sequence: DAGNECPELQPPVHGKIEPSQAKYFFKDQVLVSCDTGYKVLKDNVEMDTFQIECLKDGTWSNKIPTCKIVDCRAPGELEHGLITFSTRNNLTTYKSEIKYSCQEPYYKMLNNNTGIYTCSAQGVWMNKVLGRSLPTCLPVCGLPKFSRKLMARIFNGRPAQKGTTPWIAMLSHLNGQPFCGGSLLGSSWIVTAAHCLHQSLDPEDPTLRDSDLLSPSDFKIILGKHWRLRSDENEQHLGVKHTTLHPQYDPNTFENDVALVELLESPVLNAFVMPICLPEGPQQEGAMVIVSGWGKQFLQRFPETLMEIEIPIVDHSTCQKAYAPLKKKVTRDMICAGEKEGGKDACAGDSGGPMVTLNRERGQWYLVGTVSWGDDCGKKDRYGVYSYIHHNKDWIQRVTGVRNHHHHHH
# B1: (ODD)-AIC+SRSLP-(Oic)-I-(Pen)+IPD-(Orn)-OH (peptide)
# peptide: {C18 diacid}-AICSRSLP[Oic]I[Pen]IPD[Orn]-OH
# modifications: disulfide 3-11
# SMILES: CC[C@H](C)[C@H](NC(=O)[C@H](C)NC(=O)CCCCCCCCCCCCCCCCC(=O)O)C(=O)N[C@H]1CSSC(C)(C)[C@@H](C(=O)N[C@H](C(=O)N2CCC[C@H]2C(=O)N[C@@H](CC(=O)O)C(=O)N[C@@H](CCCN)C(=O)O)[C@@H](C)CC)NC(=O)[C@H]([C@@H](C)CC)NC(=O)[C@@H]2C[C@@H]3CCCC[C@@H]3N2C(=O)[C@@H]2CCCN2C(=O)[C@H](CC(C)C)NC(=O)[C@H](CO)NC(=O)[C@H](CCCNC(=N)N)NC(=O)[C@H](CO)NC1=O
# B2: ((N-Me)G)-IC+SRSLP-(Oic)-I-(Pen)+IP-(AAD)-OH (peptide)
# peptide: [Sar]ICSRSLP[Oic]I[Pen]IP[Aad]-OH
# modifications: disulfide 3-11; N-terminus assumed
# SMILES: CC[C@H](C)[C@H](NC(=O)CNC)C(=O)N[C@H]1CSSC(C)(C)[C@@H](C(=O)N[C@H](C(=O)N2CCC[C@H]2C(=O)N[C@@H](CCCC(=O)O)C(=O)O)[C@@H](C)CC)NC(=O)[C@H]([C@@H](C)CC)NC(=O)[C@@H]2C[C@@H]3CCCC[C@@H]3N2C(=O)[C@@H]2CCCN2C(=O)[C@H](CC(C)C)NC(=O)[C@H](CO)NC(=O)[C@H](CCCNC(=N)N)NC(=O)[C@H](CO)NC1=O
# B3: ((N-Me)G)-IC+SRS-((tBu)A)-PPI-(Pen)+IP-(PEG2(13 atoms))-OH (peptide)
# peptide: [Sar]ICSRS[tBuAla]PPI[Pen]IP[PEG3]-OH
# modifications: disulfide 3-11; N-terminus assumed
# SMILES: CC[C@H](C)[C@H](NC(=O)CNC)C(=O)N[C@H]1CSSC(C)(C)[C@@H](C(=O)N[C@H](C(=O)N2CCC[C@H]2C(=O)NCCOCCOCCOCCC(=O)O)[C@@H](C)CC)NC(=O)[C@H]([C@@H](C)CC)NC(=O)[C@@H]2CCCN2C(=O)[C@@H]2CCCN2C(=O)[C@H](CC(C)(C)C)NC(=O)[C@H](CO)NC(=O)[C@H](CCCNC(=N)N)NC(=O)[C@H](CO)NC1=O
# B4: AIC+SRSLP-((4-CF3)P)-IC+IPD-OH (peptide)
# peptide: AICSRSLP[Pro(cis-4-CF3)]ICIPD-OH
# modifications: disulfide 3-11; N-terminus assumed
# SMILES: CC[C@H](C)[C@H](NC(=O)[C@H](C)N)C(=O)N[C@H]1CSSC[C@@H](C(=O)N[C@H](C(=O)N2CCC[C@H]2C(=O)N[C@@H](CC(=O)O)C(=O)O)[C@@H](C)CC)NC(=O)[C@H]([C@@H](C)CC)NC(=O)[C@@H]2C[C@H](C(F)(F)F)CN2C(=O)[C@@H]2CCCN2C(=O)[C@H](CC(C)C)NC(=O)[C@H](CO)NC(=O)[C@H](CCCNC(=N)N)NC(=O)[C@H](CO)NC1=O
# B5: ((N-Me)G)-FC+TRK-((tBu)A)-(Pen)+YPD-OH (peptide)
# peptide: [Sar]FCTRK[tBuAla][Pen]YPD-OH
# modifications: disulfide 3-8; N-terminus assumed
# SMILES: CNCC(=O)N[C@@H](Cc1ccccc1)C(=O)N[C@H]1CSSC(C)(C)[C@@H](C(=O)N[C@@H](Cc2ccc(O)cc2)C(=O)N2CCC[C@H]2C(=O)N[C@@H](CC(=O)O)C(=O)O)NC(=O)[C@H](CC(C)(C)C)NC(=O)[C@H](CCCCN)NC(=O)[C@H](CCCNC(=N)N)NC(=O)[C@H]([C@@H](C)O)NC1=O
# B6: ((N-Me)G)-IC+SRS-((2,5-Difluoro)F)-PPI-(Pen)+IPe-OH (peptide)
# peptide: [Sar]ICSRS[Phe(2,5-diF)]PPI[Pen]IP[dE]-OH
# modifications: disulfide 3-11; N-terminus assumed
# SMILES: CC[C@H](C)[C@H](NC(=O)CNC)C(=O)N[C@H]1CSSC(C)(C)[C@@H](C(=O)N[C@H](C(=O)N2CCC[C@H]2C(=O)N[C@H](CCC(=O)O)C(=O)O)[C@@H](C)CC)NC(=O)[C@H]([C@@H](C)CC)NC(=O)[C@@H]2CCCN2C(=O)[C@@H]2CCCN2C(=O)[C@H](Cc2cc(F)ccc2F)NC(=O)[C@H](CO)NC(=O)[C@H](CCCNC(=N)N)NC(=O)[C@H](CO)NC1=O
# B7: ((N-Me)G)-IC+SRS-((2,5-Difluoro)F)-PPI-(Pen)+IPDd-OH (peptide)
# peptide: [Sar]ICSRS[Phe(2,5-diF)]PPI[Pen]IPD[dD]-OH
# modifications: disulfide 3-11; N-terminus assumed
# SMILES: CC[C@H](C)[C@H](NC(=O)CNC)C(=O)N[C@H]1CSSC(C)(C)[C@@H](C(=O)N[C@H](C(=O)N2CCC[C@H]2C(=O)N[C@@H](CC(=O)O)C(=O)N[C@H](CC(=O)O)C(=O)O)[C@@H](C)CC)NC(=O)[C@H]([C@@H](C)CC)NC(=O)[C@@H]2CCCN2C(=O)[C@@H]2CCCN2C(=O)[C@H](Cc2cc(F)ccc2F)NC(=O)[C@H](CO)NC(=O)[C@H](CCCNC(=N)N)NC(=O)[C@H](CO)NC1=O
# B8: AIC+SRSLPP-((3-Chloro-Ph)G)-C+IPD-OH (peptide)
# peptide: AICSRSLPP[(3-Chloro-Ph)G]CIPD-OH
# modifications: disulfide 3-11; N-terminus assumed
# SMILES: CC[C@H](C)[C@H](NC(=O)[C@H](C)N)C(=O)N[C@H]1CSSC[C@@H](C(=O)N[C@H](C(=O)N2CCC[C@H]2C(=O)N[C@@H](CC(=O)O)C(=O)O)[C@@H](C)CC)NC(=O)[C@H](c2cccc(Cl)c2)NC(=O)[C@@H]2CCCN2C(=O)[C@@H]2CCCN2C(=O)[C@H](CC(C)C)NC(=O)[C@H](CO)NC(=O)[C@H](CCCNC(=N)N)NC(=O)[C@H](CO)NC1=O
# B9: AIC+SRS-((tBu)A)-P-((4-CF3)P)-I-(Pen)+IPD-OH (peptide)
# peptide: AICSRS[tBuAla]P[Pro(cis-4-CF3)]I[Pen]IPD-OH
# modifications: disulfide 3-11; N-terminus assumed
# SMILES: CC[C@H](C)[C@H](NC(=O)[C@H](C)N)C(=O)N[C@H]1CSSC(C)(C)[C@@H](C(=O)N[C@H](C(=O)N2CCC[C@H]2C(=O)N[C@@H](CC(=O)O)C(=O)O)[C@@H](C)CC)NC(=O)[C@H]([C@@H](C)CC)NC(=O)[C@@H]2C[C@H](C(F)(F)F)CN2C(=O)[C@@H]2CCCN2C(=O)[C@H](CC(C)(C)C)NC(=O)[C@H](CO)NC(=O)[C@H](CCCNC(=N)N)NC(=O)[C@H](CO)NC1=O
# B10: ((N-Me)G)-IC+SRS-((tBu)A)-PPI-(Pen)+IP-(PEG4-CH2CO2H(15 atoms))-OH (peptide)
# peptide: [Sar]ICSRS[tBuAla]PPI[Pen]IP[NH(CH2CH2O)4CH2CO]-OH
# modifications: disulfide 3-11; N-terminus assumed
# SMILES: CC[C@H](C)[C@H](NC(=O)CNC)C(=O)N[C@H]1CSSC(C)(C)[C@@H](C(=O)N[C@H](C(=O)N2CCC[C@H]2C(=O)NCCOCCOCCOCCOCC(=O)O)[C@@H](C)CC)NC(=O)[C@H]([C@@H](C)CC)NC(=O)[C@@H]2CCCN2C(=O)[C@@H]2CCCN2C(=O)[C@H](CC(C)(C)C)NC(=O)[C@H](CO)NC(=O)[C@H](CCCNC(=N)N)NC(=O)[C@H](CO)NC1=O
# B11: (Orn)-IC+SRS-((2R)-2-amino-3-(trifluoromethylsulfanyl)propanoic acid)-PPI-(Pen)+IPD-OH (peptide)
# peptide: [Orn]ICSRS[X10]PPI[Pen]IPD-OH
# modifications: disulfide 3-11; N-terminus assumed
# SMILES: CC[C@H](C)[C@H](NC(=O)[C@@H](N)CCCN)C(=O)N[C@H]1CSSC(C)(C)[C@@H](C(=O)N[C@H](C(=O)N2CCC[C@H]2C(=O)N[C@@H](CC(=O)O)C(=O)O)[C@@H](C)CC)NC(=O)[C@H]([C@@H](C)CC)NC(=O)[C@@H]2CCCN2C(=O)[C@@H]2CCCN2C(=O)[C@H](CSC(F)(F)F)NC(=O)[C@H](CO)NC(=O)[C@H](CCCNC(=N)N)NC(=O)[C@H](CO)NC1=O
# Target: Recombinant human MASP2 enzyme (fragment corresponding to amino acids 297-686, C-terminal His Tag) (human, UniProt O00187 297-686)
# Sequence (O00187 other isoform, or with tags, fused parts or gaps limits assumed): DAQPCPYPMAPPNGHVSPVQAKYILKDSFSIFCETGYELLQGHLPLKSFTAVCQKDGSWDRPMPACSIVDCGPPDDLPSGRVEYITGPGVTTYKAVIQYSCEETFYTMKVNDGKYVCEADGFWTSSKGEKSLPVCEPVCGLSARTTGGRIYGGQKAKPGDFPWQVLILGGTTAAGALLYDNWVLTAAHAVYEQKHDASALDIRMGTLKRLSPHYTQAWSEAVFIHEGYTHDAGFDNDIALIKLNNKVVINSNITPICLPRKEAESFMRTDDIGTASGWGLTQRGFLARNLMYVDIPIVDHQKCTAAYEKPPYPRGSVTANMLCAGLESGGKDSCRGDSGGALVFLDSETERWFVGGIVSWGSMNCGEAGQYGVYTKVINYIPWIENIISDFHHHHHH
# Experiment: cell-based or functional assay
row,Binder,human MASP2 IC50 [µM]
1,B1,1
2,B2,0.15
3,B3,0.046
4,B4,1
5,"[Sar]ICSRS[2‑Amino‑5,5,5‑trifluoro‑4‑methyl‑pentanoic acid]PPI[Pen]IPD-OH (disulfide 3-11) [((N-Me)G)-IC+SRS-(2-Amino-5,5,5-trifluoro-4-methyl-pentanoic acid)-PPI-(Pen)+IPD-OH]",0.33
6,B5,1
7,[Sar]ICSRS[(2S)‑2‑Amino‑5‑methyl‑hexanoic acid]PPI[Pen]IPD-OH (disulfide 3-11) [((N-Me)G)-IC+SRS-((2S)-2-Amino-5-methyl-hexanoic acid)-PPI-(Pen)+IPD-OH],0.07
8,B6,0.064
9,B7,0.02
10,{(2S)‑2‑(morpholin-4-yl)propanoic acid}-ICSRSLP[Oic]I[Pen]IPD-OH (disulfide 2-10) [((2S)-2-(morpholin-4-yl)propanoic acid)-IC+SRSLP-(Oic)-I-(Pen)+IPD-OH],0.17
11,B8,1
12,"AICSRSL[(1S,2S,5R)‑3‑Azabicyclo(3.1.0)hexane‑2‑carboxylic acid]PI[Pen]IPD-OH (disulfide 3-11) [AIC+SRSL-((1S,2S,5R)-3-Azabicyclo[3.1.0]hexane-2-carboxylic acid)-PI-(Pen)+IPD-OH]",0.027
13,B9,0.51
14,B10,0.076

# Target: T1, Recombinant human MASP1 enzyme …
# Experiment: cell-based or functional assay
row,Binder,human MASP1 IC50 [µM]
1,B1,1
2,B2,0.007
3,B3,0.0053
4,[NMeA]ICSRSLP[Oic]I[Pen]IP[(N-Benzyl)D]-NH2 (disulfide 3-11) [((N-Me)A)-IC+SRSLP-(Oic)-I-(Pen)+IP-((N-Benzyl)D)-NH2],0.012
5,B4,0.0075
6,"[Sar]ICSRS[2‑Amino‑5,5,5‑trifluoro‑4‑methyl‑pentanoic acid]PPI[Pen]IPD-OH (disulfide 3-11) [((N-Me)G)-IC+SRS-(2-Amino-5,5,5-trifluoro-4-methyl-pentanoic acid)-PPI-(Pen)+IPD-OH]",0.014
7,B5,1
8,[Sar]ICSRS[(2S)‑2‑Amino‑5‑methyl‑hexanoic acid]PPI[Pen]IPD-OH (disulfide 3-11) [((N-Me)G)-IC+SRS-((2S)-2-Amino-5-methyl-hexanoic acid)-PPI-(Pen)+IPD-OH],0.065
9,B6,0.021
10,B7,0.017
11,{(2S)‑2‑(morpholin-4-yl)propanoic acid}-ICSRSLP[Oic]I[Pen]IPD-OH (disulfide 2-10) [((2S)-2-(morpholin-4-yl)propanoic acid)-IC+SRSLP-(Oic)-I-(Pen)+IPD-OH],0.07
12,B11,0.0031
13,B8,0.526
14,[dβPro]ICSRS[tBuAla]PPI[Pen]IPD-OH (disulfide 3-11) [(beta-p)-IC+SRS-((tBu)A)-PPI-(Pen)+IPD-OH],0.0025
15,"AICSRSL[(1S,2S,5R)‑3‑Azabicyclo(3.1.0)hexane‑2‑carboxylic acid]PI[Pen]IPD-OH (disulfide 3-11) [AIC+SRSL-((1S,2S,5R)-3-Azabicyclo[3.1.0]hexane-2-carboxylic acid)-PI-(Pen)+IPD-OH]",0.0017
16,B9,0.0031
17,B10,0.0062

# From patent US20210246166A1 (Bayer, published 2021)
